According to paper PMC3178605, “No Interaction of Barrier-to-Autointegration Factor (BAF) with HIV-1 MA, Cone-Rod Homeobox (Crx) or MAN1-C in Absence of DNA” (PLoS ONE, 2011):
Where no end group is shown, it is not given here.

Experiments:
[1] = molecular target: T1, Barrier-to-autointegration factor (BAF), human, unlabeled (human, UniProt O75531 1-89); experiment: NMR titration; 1H-15N HSQC of 50 µM 15N-labeled LEM domain without and with 200 µM unlabeled BAF2; 25 mM potassium phosphate pH 6.5, 200 mM NaCl, 2 mM 2-mercaptoethanol, 27°C; conditions: both partners purified
T1 construct: Barrier-to-autointegration factor (BAF/BANF1), human; Used unlabeled in the NMR experiments; also called BANF1; BAF2 (the dimer); source: cloned and purified as described [12]
T1 sequence (looked up): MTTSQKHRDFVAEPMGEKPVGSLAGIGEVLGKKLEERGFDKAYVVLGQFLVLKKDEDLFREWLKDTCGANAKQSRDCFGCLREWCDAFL

[2] = molecular target: T2, MAN1-C (UniProt Q9Y2U8 650-911); experiment: NMR (1H-15N HSQC); 150 mM NaCl?; NMR: 25 mM potassium phosphate pH 6.5, 2 mM 2-mercaptoethanol, 95% H2O/5% D2O, 200 mM NaCl (Crx samples) or 150 mM NaCl (MAN1-C samples); salt for MA and temperature not given. The pull-down used undefined sonicated salmon sperm DNA (not listed); conditions: protein: recombinant; tags: His6-thioredoxin removed by thrombin; blunt
T2 sequence: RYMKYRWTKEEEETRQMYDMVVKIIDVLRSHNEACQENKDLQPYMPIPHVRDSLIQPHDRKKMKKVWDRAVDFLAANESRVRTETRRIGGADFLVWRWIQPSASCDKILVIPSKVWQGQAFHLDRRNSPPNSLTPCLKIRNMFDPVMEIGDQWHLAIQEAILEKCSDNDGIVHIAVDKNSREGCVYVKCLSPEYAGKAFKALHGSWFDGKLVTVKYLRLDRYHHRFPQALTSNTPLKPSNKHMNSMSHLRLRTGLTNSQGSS

B1: LEM domain of MAN1 (residues 1-52), 15N-labeled (domain or fragment, UniProt Q9Y2U8 1-52, looked up)
chain: MAAAAASAPQQLSDEELFSQLRRYGLSPGPVTESTRPVYLKKLKKLREEEQQ
modifications: also: 15N-labeled
notes: MAN1 (inner nuclear membrane protein), LEM domain, residues 1-52; Uniformly 15N-labeled for NMR; also called MAN1 LEM domain; MAN-1 LEM domain; source: cloned and purified as described [12]
Question: Does B1 bind [1]?
Answer: binds

B2: LEM domain of Emerin (residues 1-47), 15N-labeled (domain or fragment, UniProt P50402 1-47, looked up)
chain: MDNYADLSDTELTTLLRRYNIPHGPVVGSTRRLYEKKIFEYETQRRR
modifications: also: 15N-labeled
notes: Emerin, LEM domain, residues 1-47; Uniformly 15N-labeled for NMR; also called Emerin LEM domain; source: cloned and purified as described [12]
Question: Does B2 bind [1]?
Answer: binds

B3: 16 mer DNA duplex (dsDNA)
DNA 1: CCAGCACAAACACCTG
DNA 2: CAGGTGTTTGTGCTGG
Question: Does B3 bind [2]?
Answer: binds
